Measured values: patent publication US20050142568A1 (published 2005)

B1: GST-CRN-1 (other, C. elegans, UniProt Q9N3T2 21-382, looked up)
chain: NEMKAFFGRTVAIDASMCLYQFLIAVRQDGSQLQSEDGETTSHLMGMLNRTVRMFENGVKPVYVFDGKPPDMKGGELEKRSERRAEAEKALTEAKEKGDVKEAEKFERRLVKVTKQQNDEAKRLLGLMGIPVVEAPCEAEAQCAHLVKAGKVFGTVTEDMDALTFGSTVLLRHFLAPVAKKIPIKEFNLSLALEEMKLSVEEFIDLCILLGCDYCGTIRGVGPKKAVELIRQHKNIETILENIDQNKYPPPEDWPYKRARELFLNPEVTKPEEVELTWKEADVEGVIQFLCGEKNFNEERIRNALAKLKTSRKSGTQGRIDSFFGNSTKVTCVTAATKRKAEEAEKAKKGAKKGGPPKKRAK
notes: also called CRN-1 GST-fusion protein; not shown: glutathione S-transferase tag encoded by vector pGEX4T-2
B2: GST-NUC-1 (other, C. elegans, UniProt Q17778 22-375, looked up)
chain: AFSCKDQSGNDVDWFAVYKMPIEKDDGSVTGLAGGVAWYYVDVNKKGTLTPSAKTLDDNDQAIAYTLQQYYDKQNDKTIFHVMYNDEPWGSKSTSGIKLEEILSNRVYSNYTHEDDSTSTAFGHTKGTIFFDGTSGVWLVHSVPLFPNPTKYEYPVSGHDYGQTMLCMTFKYAQLKSIGTQLFFNRPNIYSSNLPTNMAADNADLAKAIAGQYQKGQPFQSVIELETMAGYSFTNFAKSKEFNADLYDTLVAPTLKTDLVVETWRRGSEIPLDCKLTYHANDALSIHVGSTTAFSYTKDHSKMAHSADMTKPWVCIGDINRMTSQYVRGGGTTCISSSFLWKAYSVIATQNNCA
notes: also called NUC-1 GST-fusion protein; not shown: glutathione S-transferase tag encoded by vector pGEX4T-2
B3: ^35S-Methionine labeled CRN-6 (enzyme, C. elegans, UniProt P34508-2 18-373, looked up)
chain: AYQCKDNNGSNVDWFVFYKLPHLWNHPDNVPISNGTGFLYFDVNNKNWKLMPQGMDVENNAVYYTLQQYYNSNMNTTFSYMYNDEWPDSTIWSNSSGHAKGVTVFDQYTGFWMIHSIPKFPSKDMFRFPSNAHYYGQMGICISYNTVSLATIAQQLFYYNTFTYQFNLPQSFANQFPVLSQLKNKEYNKSPPLTSTKVLKSLGGQHFRHFAKTGEWGKDLYSDFVGPTLKSSIKVETWNHQSGDEYNLPSVCDPNHVQSTMSAKYIRLPYAIDYSSYEDHSKFVVAYSESSSKPPIPYVCIGDINRQSHQIHRGGGTMCIYDQETYFQFANIISETVPCTKATAEKVDALANNRYF
modifications: 35S-methionine labelled

Columns and labels:
Assay in all cases: GST pull-down, 35S-Met protein vs GST fusion; - means no detectable binding (footnote a)
[1] = molecular target: T1, ^35S-Methionine labeled CRN-3 (C. elegans, UniProt G5EBX6 1-876)
T1 sequence: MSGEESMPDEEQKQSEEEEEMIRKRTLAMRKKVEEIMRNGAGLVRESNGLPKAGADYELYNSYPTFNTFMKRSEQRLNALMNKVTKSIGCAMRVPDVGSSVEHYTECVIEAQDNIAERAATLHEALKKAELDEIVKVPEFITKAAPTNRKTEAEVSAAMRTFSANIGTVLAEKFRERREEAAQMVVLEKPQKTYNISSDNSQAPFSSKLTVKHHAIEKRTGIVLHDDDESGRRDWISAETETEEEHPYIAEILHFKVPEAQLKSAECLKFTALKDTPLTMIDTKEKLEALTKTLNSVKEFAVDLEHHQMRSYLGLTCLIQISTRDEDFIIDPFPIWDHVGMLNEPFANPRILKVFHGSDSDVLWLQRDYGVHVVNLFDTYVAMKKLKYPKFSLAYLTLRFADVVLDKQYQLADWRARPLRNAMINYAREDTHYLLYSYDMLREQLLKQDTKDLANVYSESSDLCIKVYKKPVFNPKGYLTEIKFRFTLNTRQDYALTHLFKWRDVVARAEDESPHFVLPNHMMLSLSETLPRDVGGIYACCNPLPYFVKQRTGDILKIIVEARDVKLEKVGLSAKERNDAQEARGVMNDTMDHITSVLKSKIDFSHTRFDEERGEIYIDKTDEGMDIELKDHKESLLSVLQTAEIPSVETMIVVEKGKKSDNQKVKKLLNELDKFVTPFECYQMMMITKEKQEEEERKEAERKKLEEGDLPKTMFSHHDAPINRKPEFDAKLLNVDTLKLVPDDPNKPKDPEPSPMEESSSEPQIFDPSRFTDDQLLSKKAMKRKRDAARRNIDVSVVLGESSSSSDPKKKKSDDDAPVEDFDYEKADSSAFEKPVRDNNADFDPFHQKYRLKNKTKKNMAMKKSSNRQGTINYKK
Protocol: (§1) GST fusion protein pull-down assays were performed as described in J. Parrish, H. Metters, L. Chen, D. Xue, Proc. Natl. Acad. Sci. U.S.A. 97, 11916 (2000). Purified GST or GST-fusion proteins (5 μg each) immobilized on glutathione sepharose beads were incubated with ³⁵S-Methionine labeled proteins at 4° C. for 2 hours. The beads were washed extensively and the bound proteins were resolved on a 12% SDS-PAGE and visualized by autoradiography. [0103] cDNAs corresponding to the ORFs were cloned into the pPD129.36 vector via its Nhe I and Xho I sites or the Xho I site alone. Full-length cDNAs were subcloned into the pGEX4T-2 vector for generating GST fusion proteins and for further protein purification and into the pcDNA3.1 vector for in vitro transcription/translation experiments.
(§2) ^aInteractions were evaluated relative to background binding of ³⁵S-Methionine labeled Luciferase to GST-fusion proteins and ³⁵S-Methionine labeled proteins to GST. “−” indicates no detectable binding, “+” indicates an interaction consistently observed above background levels, and “++” indicates a strong interaction. ^bBecause ³⁵S-Methionine labeled CRN-1 binds GST tightly, it was not possible to evaluate interactions between ³⁵S-CRN-1 and various GST-fusion proteins. ND, not determined.

GST-CRN-1 = molecular target: B1
Protocol: as §1, §2

GST-CRN-6 = molecular target: T2, GST-CRN-6 (C. elegans, UniProt P08515 1-218 = GST; P34508 1-373)
T2 construct: Two crn-6 cDNAs (700 bp and 1.1 kb) were isolated; the longer one made the GST fusion; also called CRN-6 GST-fusion protein
Protocol: as §1, §2

GST-NUC-1 = molecular target: B2
Protocol: as §1, §2

[2] = molecular target: B3
Protocol: as §1, §2

GST-CRN-3 = molecular target: T3, GST-CRN-3 (C. elegans, UniProt G5EBX6 1-876)
T3 construct: also called CRN-3 GST-fusion protein; not shown: glutathione S-transferase tag encoded by vector pGEX4T-2
T3 sequence: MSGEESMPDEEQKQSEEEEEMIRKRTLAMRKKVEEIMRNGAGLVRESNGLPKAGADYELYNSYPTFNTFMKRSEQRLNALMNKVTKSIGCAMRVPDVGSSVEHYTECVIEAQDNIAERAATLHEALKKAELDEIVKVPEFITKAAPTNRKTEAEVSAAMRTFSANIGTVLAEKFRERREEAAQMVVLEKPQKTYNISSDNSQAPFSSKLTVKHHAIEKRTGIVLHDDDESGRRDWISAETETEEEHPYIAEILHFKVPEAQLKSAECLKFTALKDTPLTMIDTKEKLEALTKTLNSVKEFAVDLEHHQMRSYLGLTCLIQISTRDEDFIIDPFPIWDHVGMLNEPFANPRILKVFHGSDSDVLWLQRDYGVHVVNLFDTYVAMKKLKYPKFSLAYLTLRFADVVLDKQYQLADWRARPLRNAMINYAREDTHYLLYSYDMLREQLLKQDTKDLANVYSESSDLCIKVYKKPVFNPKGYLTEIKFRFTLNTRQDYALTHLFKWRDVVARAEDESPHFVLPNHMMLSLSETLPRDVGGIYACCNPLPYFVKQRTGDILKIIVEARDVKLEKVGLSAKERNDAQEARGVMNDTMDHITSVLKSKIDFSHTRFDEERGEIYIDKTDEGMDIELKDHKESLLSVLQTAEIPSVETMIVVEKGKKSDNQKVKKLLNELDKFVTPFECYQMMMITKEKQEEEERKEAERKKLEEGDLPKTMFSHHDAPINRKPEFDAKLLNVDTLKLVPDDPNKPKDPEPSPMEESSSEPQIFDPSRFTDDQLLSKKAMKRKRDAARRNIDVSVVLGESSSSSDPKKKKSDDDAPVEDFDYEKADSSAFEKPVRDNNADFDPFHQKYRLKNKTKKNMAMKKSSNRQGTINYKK
Protocol: as §1, §2

[3] = molecular target: T4, GST (glutathione-S transferase alone) (UniProt P08515 1-218 = GST)
T4 construct: Purified GST used as negative control bait on glutathione sepharose beads; also called OST
T4 sequence (P08515 whole entry): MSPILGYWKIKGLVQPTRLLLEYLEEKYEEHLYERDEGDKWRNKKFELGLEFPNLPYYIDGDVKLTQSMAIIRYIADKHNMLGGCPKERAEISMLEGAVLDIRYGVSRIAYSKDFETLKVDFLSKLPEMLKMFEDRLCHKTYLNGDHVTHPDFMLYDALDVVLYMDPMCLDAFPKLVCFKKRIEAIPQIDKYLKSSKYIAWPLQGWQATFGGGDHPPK
Protocol: as §1, §2

Row | Binder | binding result (GST-CRN-1) | binding result (GST-CRN-6) | binding result (GST-CRN-3) | other results
1 | B1 |  |  |  | binding result [1]: no binding
2 | ^35S-Methionine labeled NUC-1 (enzyme, C. elegans, UniProt Q17778 22-375, looked up, 35S-methionine labelled) AFSCKDQSGNDVDWFAVYKMPIEKDDGSVTGLAGGVAWYYVDVNKKGTLTPSAKTLDDNDQAIAYTLQQYYDKQNDKTIFHVMYNDEPWGSKSTSGIKLEEILSNRVYSNYTHEDDSTSTAFGHTKGTIFFDGTSGVWLVHSVPLFPNPTKYEYPVSGHDYGQTMLCMTFKYAQLKSIGTQLFFNRPNIYSSNLPTNMAADNADLAKAIAGQYQKGQPFQSVIELETMAGYSFTNFAKSKEFNADLYDTLVAPTLKTDLVVETWRRGSEIPLDCKLTYHANDALSIHVGSTTAFSYTKDHSKMAHSADMTKPWVCIGDINRMTSQYVRGGGTTCISSSFLWKAYSVIATQNNCA | no binding | no binding |  | binding result (GST-NUC-1): no binding
3 | B2 |  |  |  | binding result [2]: no binding
4 | ^35S-Methionine labeled CRN-4 (enzyme, C. elegans, UniProt Q10905 1-298, looked up, 35S-methionine labelled) MAYQHCPFDTLLILDFETTSDAANQDYPCEVIQFAIVAYDVPNDKIREDISFNKYVKPVLNRTLTKNCVDFTGIPQRSIDTADTFDVVYEQFQQWLITLGLEEGKFAFVCDSRQDLWRIAQYQMKLSNIQMPAFFRQYINLYKIFTNEMDRMGPKELSATTNIGKMNEYYDLPTIGRAHDAMDDCLNIATILQRMINMGAKVTVNELLTCCASWRRQPLVYNKEWRSSFMDAGKIFERVLPLVVTTIRAGDFRLEMYGVCRYCRKGMDVCGTSHQQTPHDLYKNEEDPIHFAKIAGYY |  | no binding | no binding | 
5 | ^35S-Methionine labeled CYP-13 (enzyme, also called ^35S-CYP-13; CPY-13) not shown |  | no binding | no binding | binding result [3]: no binding; binding result (GST-NUC-1): no binding
6 | B3 | no binding | no binding | no binding | 
7 | ^35S-Methionine labeled CRN-5 (enzyme, C. elegans) MAGRLREMRCELSFLKNADGSACFSQGATCIWASCSGPGDVHASKASDEAMTLDISYRANCGDNKFNVLNNIIHSTLSNAINLELFPHTTISVTVHGIQDDGSMGAVAINGACFALLDNGMPFETVFCGVLIVRVKDELIIDPTAKQEAASTGRVLFSVCKGSDGHPEVCAMDAIGHWDFIQLEAAWSLAQPSASAIFDFYKTVMKRKLSVDEQ | no binding | no binding |  | binding result [3]: no binding
8 | GST-CRN-5 (other, also called CRN-5 GST-fusion protein; not shown: GST carrier and the linker of vector pGEX4T-2) MAGRLREMRCELSFLKNADGSACFSQGATCIWASCSGPGDVHASKASDEAMTLDISYRANCGDNKFNVLNNIIHSTLSNAINLELFPHTTISVTVHGIQDDGSMGAVAINGACFALLDNGMPFETVFCGVLIVRVKDELIIDPTAKQEAASTGRVLFSVCKGSDGHPEVCAMDAIGHWDFIQLEAAWSLAQPSASAIFDFYKTVMKRKLSVDEQ |  |  |  | binding result [2]: no binding
